For the data set, the system named is NG-RYBP (Homo sapiens). The data set is described as follows: EMSA. The settings on record: n=3; almost fourfold; EMSA: 25 mM Tris-HCl pH 7.5, 50 mM NaCl, 0.05% Tween 20, 5 mM MgCl2, 4% glycerol, 0.2 nM nucleosome, 10 min on ice, 1% agarose 0.4x TBE; cryo-EM binding: 50 mM …. (Mobility shift assays separate free from complexed probe on a gel.)

In turn, Nuc (EMSA, 201 bp 601) came in with a binding signal (fold lower affinity than NucH2Aub1) of 4.

For the origin of these results see publication PMC11257959.
